Experimental data: publication doi:10.1101/422709 (bioRxiv, 2019)

Biological target: the molecule itself
Experiment: crystal structure

Protein	stoichiometry N
phosphoribulokinase from Chlamydomonas reinhardtii (enzyme, UniProt P19824 32-375, looked up) DKDKTVVIGLAADSGCGKSTFMRRMTSIFGGVPKPPAGGNPDSNTLISDMTTVICLDDYHCLDRNGRKVKGVTALAPEAQNFDLMYNQVKALKEGKSVDKPIYNHVSGLIDAPEKIESPPILVIEGLHPFYDKRVAELLDFKIYLDISDDIKFAWKIQRDMAERGHSLESIKSSIAARKPDFDAYIDPQKKDADMIIQVLPTQLVPDDKGQYLRVRLIMKEGSKMFDPVYLFDEGSTISWIPCGRKLTCSFPGIKMFYGPDTWYGQEVSVLEMDGQFDKLEELIYVESHLSNTSAKFYGEITQQMLKNSGFPGSNNGTGLFQTIVGLKVREVYERIVKKDVVPV	2
phosphoribulokinase from Arabidopsis thaliana (enzyme, UniProt P25697 47-395, looked up) AQETIVIGLAADSGCGKSTFMRRLTSVFGGAAKPPKGGNPDSNTLISDTTTVICLDDYHSLDRYGRKEQKVTALDPRANDFDLMYEQVKALKNGIAVEKPIYNHVTGLLDPPELIQPPKILVIEGLHPMFDERVRDLLDFSIYLDISNEVKFAWKIQRDMAERGHSLESIKASIEARKPDFDAFIDPQKQYADAVIEVLPTTLIPDDNEGKVLRVRLIMKEGVKYFSPVYLFDEGSTISWIPCGRKLTCSYPGIKFNYEPDSYFDHEVSVLEMDGQFDRLDELIYVESHLSNLSTKFYGEVTQQMLKHADFPGSNNGTGLFQTIVGLKIRDLYEQLIANKATARAEAKA	2
